From patent US8242083B2, “Kinase substrates” (PerkinElmer Health Sciences, Inc., priority 2008, dated 2012) come the findings set out here.

Common to all, as to assay type: biochemical
One assay deals with LCK (Homo sapiens, UniProt P06239). As to the kind of experiment: TR-FRET kinase assay, LCK. The settings on record: Kinase Concentration 0.5 nM; 50 nM ULight-labeled substrate, 200 micromolar ATP, 2 hours. The protocol:
(§1) TR-FRET kinase assays are performed under standardized conditions: various individual kinases are incubated with 50 nM of kinase substrate BRB1 labeled with the TR-FRET acceptor dye ULight (PerkinElmer) and 200 micromolar ATP in 10 μL of kinase assay buffer (50 mM HEPES pH7.5, 10 mM MgCl2, 3 mM MnCl2, 1 mM EGTA, 2 mM DTT and 0.01% Tween-20) for 2 hours at room temperature. Reactions are stopped with EDTA, and anti-phospho-tyrosine antibodies (clone PT66) labeled with the TR-FRET europium chelate donor dye are added to a final concentration of 2 nM in a final volume of 20 μL. The TR-FRET signal emitted at 665 nm is read one hour after the addition of antibodies using a TR-FRET plate reader such as the Envision® Multilabel Plate reader (PerkinElmer). The emitted signal at 665 nm is proportional to the extent of peptide phosphorylation, Control reactions indicative of background are performed excluding ATP from the reaction.
(§2) Assay conditions are identical to those used described for FIG. 1.

Another assay has as its target LYNa (Homo sapiens, UniProt P07948). As to the kind of experiment: TR-FRET kinase assay, LYNa. The settings on record: Kinase Concentration 0.5 nM; 50 nM ULight-labeled substrate, 200 micromolar ATP, 2 hours. The protocol:
as §1, §2
A general note: In TR-FRET formats the signal depends on donor and acceptor labels being close together.

The target in another assay is EphA7 (Homo sapiens, UniProt Q15375). As to the kind of experiment: TR-FRET kinase assay, EphA7. The note with it: Kinase Concentration 0.5 nM; 50 nM ULight-labeled substrate, 200 micromolar ATP, 2 hours. The protocol:
as §1, §2

The target in another assay is EphA4 (Homo sapiens, UniProt P54764). Kind of assay: TR-FRET kinase assay, EphA4. The settings on record: Kinase Concentration 0.5 nM; 50 nM ULight-labeled substrate, 200 micromolar ATP, 2 hours. Here is the method:
as §1, §2

A further assay deals with T1, TNK1 (Homo sapiens, UniProt Q13470).
T1 sequence (Q13470 1-666): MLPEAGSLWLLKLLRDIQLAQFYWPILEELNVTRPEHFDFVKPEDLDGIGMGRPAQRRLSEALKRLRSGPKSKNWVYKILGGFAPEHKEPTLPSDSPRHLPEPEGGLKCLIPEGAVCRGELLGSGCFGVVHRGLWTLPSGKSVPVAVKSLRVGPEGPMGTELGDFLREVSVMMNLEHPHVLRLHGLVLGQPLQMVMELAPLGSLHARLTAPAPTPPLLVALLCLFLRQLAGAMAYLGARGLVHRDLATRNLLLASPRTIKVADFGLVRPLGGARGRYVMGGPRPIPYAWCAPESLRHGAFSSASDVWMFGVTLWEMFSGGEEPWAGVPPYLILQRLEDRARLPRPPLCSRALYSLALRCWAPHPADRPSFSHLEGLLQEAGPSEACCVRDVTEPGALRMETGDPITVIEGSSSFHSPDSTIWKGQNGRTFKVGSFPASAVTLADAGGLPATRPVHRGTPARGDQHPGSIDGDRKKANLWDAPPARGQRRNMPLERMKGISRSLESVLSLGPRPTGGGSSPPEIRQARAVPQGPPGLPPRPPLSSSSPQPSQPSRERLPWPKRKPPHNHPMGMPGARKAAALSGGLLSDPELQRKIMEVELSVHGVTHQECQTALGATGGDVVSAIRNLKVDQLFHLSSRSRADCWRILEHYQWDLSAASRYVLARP
Kind of assay: TR-FRET kinase assay, TNK1. The settings on record: Kinase Concentration 1 nM; 50 nM ULight-labeled substrate, 200 micromolar ATP, 2 hours. Here is the method: as §1, §2

The target in a further assay is FMS (CSFR) (Homo sapiens, UniProt P07333). As to the kind of experiment: TR-FRET kinase assay, FMS (CSFR). The settings on record: Kinase Concentration 0.25 nM; 50 nM ULight-labeled substrate, 200 micromolar ATP, 2 hours. Here is the method: as §1, §2
The target in the next assay is T2, MER (Homo sapiens, UniProt Q12866).
T2 sequence (Q12866 21-999): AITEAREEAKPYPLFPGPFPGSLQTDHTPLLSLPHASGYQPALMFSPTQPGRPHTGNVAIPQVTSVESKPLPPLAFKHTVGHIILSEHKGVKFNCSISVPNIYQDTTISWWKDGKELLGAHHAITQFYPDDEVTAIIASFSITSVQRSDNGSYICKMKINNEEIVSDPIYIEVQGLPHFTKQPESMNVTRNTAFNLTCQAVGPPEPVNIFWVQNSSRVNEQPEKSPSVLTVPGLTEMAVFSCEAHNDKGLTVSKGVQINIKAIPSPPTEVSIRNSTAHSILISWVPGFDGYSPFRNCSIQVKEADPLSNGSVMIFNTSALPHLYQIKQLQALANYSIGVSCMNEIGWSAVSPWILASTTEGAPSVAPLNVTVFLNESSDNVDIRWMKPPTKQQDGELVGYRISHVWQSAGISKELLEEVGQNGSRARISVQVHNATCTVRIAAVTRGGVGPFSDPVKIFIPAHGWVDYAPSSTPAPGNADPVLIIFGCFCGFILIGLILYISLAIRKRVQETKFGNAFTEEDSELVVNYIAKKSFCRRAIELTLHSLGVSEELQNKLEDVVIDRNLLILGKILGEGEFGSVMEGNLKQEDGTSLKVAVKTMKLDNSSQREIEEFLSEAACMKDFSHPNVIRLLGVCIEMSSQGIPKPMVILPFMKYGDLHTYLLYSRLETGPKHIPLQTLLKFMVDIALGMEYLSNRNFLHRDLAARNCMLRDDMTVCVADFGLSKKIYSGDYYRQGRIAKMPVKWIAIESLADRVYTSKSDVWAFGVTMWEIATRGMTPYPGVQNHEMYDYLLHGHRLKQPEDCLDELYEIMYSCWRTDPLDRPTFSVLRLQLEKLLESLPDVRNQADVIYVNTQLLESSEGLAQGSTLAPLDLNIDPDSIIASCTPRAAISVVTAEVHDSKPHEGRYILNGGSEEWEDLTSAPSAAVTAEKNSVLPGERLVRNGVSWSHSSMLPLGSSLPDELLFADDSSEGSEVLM
Kind of assay: TR-FRET kinase assay, MER. The note with it: Kinase Concentration 0.25 nM; 50 nM ULight-labeled substrate, 200 micromolar ATP, 2 hours. The protocol: as §1, §2

Sequence of LCK (P06239 whole entry, species assumed): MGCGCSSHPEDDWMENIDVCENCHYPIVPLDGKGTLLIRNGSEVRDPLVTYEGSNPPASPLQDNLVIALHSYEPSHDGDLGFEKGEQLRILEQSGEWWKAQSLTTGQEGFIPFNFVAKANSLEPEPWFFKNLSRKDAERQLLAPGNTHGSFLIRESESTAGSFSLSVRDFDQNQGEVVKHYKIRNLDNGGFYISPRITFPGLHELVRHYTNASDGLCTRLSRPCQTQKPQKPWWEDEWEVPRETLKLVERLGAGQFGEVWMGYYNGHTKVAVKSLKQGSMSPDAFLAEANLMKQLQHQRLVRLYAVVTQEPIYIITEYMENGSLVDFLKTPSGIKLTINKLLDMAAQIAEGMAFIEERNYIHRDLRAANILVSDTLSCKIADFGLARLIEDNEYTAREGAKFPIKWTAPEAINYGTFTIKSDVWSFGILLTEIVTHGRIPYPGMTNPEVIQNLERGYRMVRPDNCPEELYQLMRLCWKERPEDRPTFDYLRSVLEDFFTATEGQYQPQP
Sequence of LYNa (P07948 whole entry, species assumed): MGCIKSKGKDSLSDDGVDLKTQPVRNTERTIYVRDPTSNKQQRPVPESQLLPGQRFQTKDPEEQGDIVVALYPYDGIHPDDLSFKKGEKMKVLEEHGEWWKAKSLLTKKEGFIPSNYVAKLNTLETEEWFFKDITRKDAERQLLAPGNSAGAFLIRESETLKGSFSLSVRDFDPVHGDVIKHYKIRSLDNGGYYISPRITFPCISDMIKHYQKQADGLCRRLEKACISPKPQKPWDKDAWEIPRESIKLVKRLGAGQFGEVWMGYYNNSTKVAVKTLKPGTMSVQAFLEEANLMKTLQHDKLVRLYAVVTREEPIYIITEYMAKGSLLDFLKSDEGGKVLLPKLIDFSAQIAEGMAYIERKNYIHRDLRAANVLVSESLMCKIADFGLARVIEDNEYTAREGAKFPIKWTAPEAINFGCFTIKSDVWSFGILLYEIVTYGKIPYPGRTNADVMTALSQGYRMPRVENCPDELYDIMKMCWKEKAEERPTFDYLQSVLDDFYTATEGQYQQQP
Sequence of EphA4 (P54764 20-986, species assumed): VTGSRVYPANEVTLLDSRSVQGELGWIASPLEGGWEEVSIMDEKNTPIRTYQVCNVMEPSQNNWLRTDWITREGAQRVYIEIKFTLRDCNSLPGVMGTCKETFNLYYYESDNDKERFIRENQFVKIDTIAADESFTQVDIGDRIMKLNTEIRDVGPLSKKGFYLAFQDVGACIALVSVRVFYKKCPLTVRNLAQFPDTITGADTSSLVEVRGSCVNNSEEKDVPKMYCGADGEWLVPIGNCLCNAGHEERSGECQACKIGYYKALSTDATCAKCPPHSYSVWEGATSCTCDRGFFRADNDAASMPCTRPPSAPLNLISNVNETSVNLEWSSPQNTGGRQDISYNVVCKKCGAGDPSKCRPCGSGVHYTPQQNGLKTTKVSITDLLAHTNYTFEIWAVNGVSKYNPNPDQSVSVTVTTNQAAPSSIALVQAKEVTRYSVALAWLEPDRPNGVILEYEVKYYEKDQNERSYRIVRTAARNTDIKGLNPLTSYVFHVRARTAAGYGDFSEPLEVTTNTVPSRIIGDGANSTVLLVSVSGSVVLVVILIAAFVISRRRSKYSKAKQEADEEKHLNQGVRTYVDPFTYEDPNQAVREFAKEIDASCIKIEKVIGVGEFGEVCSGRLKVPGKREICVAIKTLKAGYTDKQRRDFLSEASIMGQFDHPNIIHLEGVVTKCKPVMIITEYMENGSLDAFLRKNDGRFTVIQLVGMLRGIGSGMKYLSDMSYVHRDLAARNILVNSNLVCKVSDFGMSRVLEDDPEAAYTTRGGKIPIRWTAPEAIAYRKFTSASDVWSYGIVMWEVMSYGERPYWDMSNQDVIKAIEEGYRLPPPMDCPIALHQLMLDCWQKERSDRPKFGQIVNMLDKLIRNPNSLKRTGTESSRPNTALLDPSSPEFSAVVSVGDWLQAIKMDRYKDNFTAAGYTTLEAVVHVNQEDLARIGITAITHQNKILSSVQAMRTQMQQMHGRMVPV
Sequence of EphA7 (Q15375 28-998, species assumed): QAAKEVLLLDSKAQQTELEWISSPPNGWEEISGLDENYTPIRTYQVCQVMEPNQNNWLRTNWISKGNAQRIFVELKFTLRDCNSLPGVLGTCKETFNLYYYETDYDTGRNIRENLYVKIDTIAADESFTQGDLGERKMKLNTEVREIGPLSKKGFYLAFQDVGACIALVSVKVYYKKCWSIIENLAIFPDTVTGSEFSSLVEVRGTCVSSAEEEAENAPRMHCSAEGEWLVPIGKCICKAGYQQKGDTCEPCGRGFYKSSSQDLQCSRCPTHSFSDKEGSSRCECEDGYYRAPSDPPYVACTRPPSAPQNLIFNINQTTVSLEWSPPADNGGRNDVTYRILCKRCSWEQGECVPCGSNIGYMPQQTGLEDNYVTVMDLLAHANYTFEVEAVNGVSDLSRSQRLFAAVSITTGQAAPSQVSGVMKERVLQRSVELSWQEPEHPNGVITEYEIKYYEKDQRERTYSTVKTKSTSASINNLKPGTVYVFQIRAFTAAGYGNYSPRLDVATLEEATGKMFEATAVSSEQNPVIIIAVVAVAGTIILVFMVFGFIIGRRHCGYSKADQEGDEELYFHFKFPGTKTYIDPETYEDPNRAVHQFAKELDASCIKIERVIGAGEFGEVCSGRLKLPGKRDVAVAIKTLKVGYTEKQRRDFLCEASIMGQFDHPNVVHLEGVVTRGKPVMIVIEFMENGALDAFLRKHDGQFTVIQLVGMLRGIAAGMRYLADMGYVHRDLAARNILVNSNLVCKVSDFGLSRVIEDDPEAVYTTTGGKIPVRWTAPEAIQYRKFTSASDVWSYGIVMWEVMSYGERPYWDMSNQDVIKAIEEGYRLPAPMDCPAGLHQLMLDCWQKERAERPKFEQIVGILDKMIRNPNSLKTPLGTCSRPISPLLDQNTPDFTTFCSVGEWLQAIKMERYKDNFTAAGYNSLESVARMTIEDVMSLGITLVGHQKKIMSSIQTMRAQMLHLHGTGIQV

Turning to “C AYE AYE AYE K EYA EYA EYA K AYA EYE R (CAYEAYEAYEKEYAEYAEYAKAYAEYER; tyrosine kinase substrate peptide) [BRB1]”, the “Signal to Noise ratio with BRB1 Peptide” value with LCK was determined as 12.3; in the assay with LYNa it was 32.5; with EphA7, 17.2; with EphA4, 31.5; with TNK1, 6.8; with FMS (CSFR), 3.0. Further, the “Signal to Noise ratio with BRB1 Peptide” value with MER turned out to be 12.9.
